Reference: patent US20220144956A1 (published 2022)

Biological target: T1, human TGFßRII (antigen of the Octet experiments) (human, UniProt P37173 23-166)
Assay: Octet

T1 sequence (P37173 23-166): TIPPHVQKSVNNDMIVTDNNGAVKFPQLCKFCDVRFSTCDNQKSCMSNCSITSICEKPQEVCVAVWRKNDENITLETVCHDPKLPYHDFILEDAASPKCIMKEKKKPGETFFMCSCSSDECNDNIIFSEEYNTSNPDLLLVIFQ

| Binder | Kd |
| --- | --- |
| XENP34306 H1.1 L1 (antibody, V domains shown) VH: QLQVQESGPGLVKPSETLSLTCTVSGGSISNSYFSWGWIRQPPGKGLEWIGSFYYGEKTYYNPSLKSRATISIDTSKSQFSLKLSSVTAADTAVYYCPRGPTVIRGVIDSWGQGTLVTVSS VL: EIVLTQSPATLSLSPGERATLSCRASQSVRSYLAWYQQKPGQAPRLLIYDASNRATGIPARFSGSGSGTDFTLTISSLEPEDFAVYYCQQRSNWPPTFGQGTKVEIK | 4.02 nM |
| XENP35122 H1.33 L1 (antibody, V domains shown) VH: QLQVQESGPGLVKPSETLSLTCTVSGGSISNSYFSWAWIRQPPGKGLEWIGSFYYGEKTYYNPSLKSRATISIDTSKSQFSLKLSSVTAADTAVYYCPRGPTMIRGVIDSWGQGTLVTVSS VL: EIVLTQSPATLSLSPGERATLSCRASQSVRSYLAWYQQKPGQAPRLLIYDASNRATGIPARFSGSGSGTDFTLTISSLEPEDFAVYYCQQRSNWPPTFGQGTKVEIK | 3.42 nM |
| XENP35120 H1.29 L1 (antibody, V domains shown) VH: QLQVQESGPGLVKPSETLSLTCTVSGGSISNSYFTWGWIRQPPGKGLEWIGSFYYGEKTYYNPSLKSRATISIDTSKSQFSLKLSSVTAADTAVYYCPRGPTMIRGVIDSWGQGTLVTVSS VL: EIVLTQSPATLSLSPGERATLSCRASQSVRSYLAWYQQKPGQAPRLLIYDASNRATGIPARFSGSGSGTDFTLTISSLEPEDFAVYYCQQRSNWPPTFGQGTKVEIK | 4.6 nM |
| XENP34305 H1 L1 (antibody, V domains shown) VH: QLQVQESGPGLVKPSETLSLTCTVSGGSISNSYFSWGWIRQPPGKGLEWIGSFYYGEKTYYNPSLKSRATISIDTSKSQFSLKLSSVTAADTAVYYCPRGPTMIRGVIDSWGQGTLVTVSS VL: EIVLTQSPATLSLSPGERATLSCRASQSVRSYLAWYQQKPGQAPRLLIYDASNRATGIPARFSGSGSGTDFTLTISSLEPEDFAVYYCQQRSNWPPTFGQGTKVEIK | 2.92 nM |
| XENP35119 H1.21 L1 (antibody, V domains shown) VH: QLQVQESGPGLVKPSETLSLTCTVSGGSISNSAFSWGWIRQPPGKGLEWIGSFYYGEKTYYNPSLKSRATISIDTSKSQFSLKLSSVTAADTAVYYCPRGPTMIRGVIDSWGQGTLVTVSS VL: EIVLTQSPATLSLSPGERATLSCRASQSVRSYLAWYQQKPGQAPRLLIYDASNRATGIPARFSGSGSGTDFTLTISSLEPEDFAVYYCQQRSNWPPTFGQGTKVEIK | 2.79 nM |
| XENP35121 H1.30 L1 (antibody, V domains shown) VH: QLQVQESGPGLVKPSETLSLTCTVSGGSISNSYFYWGWIRQPPGKGLEWIGSFYYGEKTYYNPSLKSRATISIDTSKSQFSLKLSSVTAADTAVYYCPRGPTMIRGVIDSWGQGTLVTVSS VL: EIVLTQSPATLSLSPGERATLSCRASQSVRSYLAWYQQKPGQAPRLLIYDASNRATGIPARFSGSGSGTDFTLTISSLEPEDFAVYYCQQRSNWPPTFGQGTKVEIK | 10.3 nM |

Further lines, results first:

| Kd | Binder |
| --- | --- |
| 2.63 nM | XENP35124 H1.37 L1 (antibody, V domains shown) VH: QLQVQESGPGLVKPSETLSLTCTVSGGSISNSYFSWGWVRQPPGKGLEWIGSFYYGEKTYYNPSLKSRATISIDTSKSQFSLKLSSVTAADTAVYYCPRGPTMIRGVIDSWGQGTLVTVSS VL: EIVLTQSPATLSLSPGERATLSCRASQSVRSYLAWYQQKPGQAPRLLIYDASNRATGIPARFSGSGSGTDFTLTISSLEPEDFAVYYCQQRSNWPPTFGQGTKVEIK |
| 35 nM | XENP35127 H1.48 L1 (antibody, V domains shown) VH: QLQVQESGPGLVKPSETLSLTCTVSGGSISNSYFSWGWIRQPPGKGLEWIGSFDYGEKTYYNPSLKSRATISIDTSKSQFSLKLSSVTAADTAVYYCPRGPTMIRGVIDSWGQGTLVTVSS VL: EIVLTQSPATLSLSPGERATLSCRASQSVRSYLAWYQQKPGQAPRLLIYDASNRATGIPARFSGSGSGTDFTLTISSLEPEDFAVYYCQQRSNWPPTFGQGTKVEIK |
| 5.1 nM | XENP35123 H1.36 L1 (antibody, V domains shown) VH: QLQVQESGPGLVKPSETLSLTCTVSGGSISNSYFSWSWIRQPPGKGLEWIGSFYYGEKTYYNPSLKSRATISIDTSKSQFSLKLSSVTAADTAVYYCPRGPTMIRGVIDSWGQGTLVTVSS VL: EIVLTQSPATLSLSPGERATLSCRASQSVRSYLAWYQQKPGQAPRLLIYDASNRATGIPARFSGSGSGTDFTLTISSLEPEDFAVYYCQQRSNWPPTFGQGTKVEIK |
| 23 nM | XENP35125 H1.51 L1 (antibody, V domains shown) VH: QLQVQESGPGLVKPSETLSLTCTVSGGSISNSYFSWGWIRQPPGKGLEWIGSFNYGEKTYYNPSLKSRATISIDTSKSQFSLKLSSVTAADTAVYYCPRGPTMIRGVIDSWGQGTLVTVSS VL: EIVLTQSPATLSLSPGERATLSCRASQSVRSYLAWYQQKPGQAPRLLIYDASNRATGIPARFSGSGSGTDFTLTISSLEPEDFAVYYCQQRSNWPPTFGQGTKVEIK |
| 3.36 nM | XENP35126 H1.56 L1 (antibody, V domains shown) VH: QLQVQESGPGLVKPSETLSLTCTVSGGSISNSYFSWGWIRQPPGKGLEWIGSFYYGGKTYYNPSLKSRATISIDTSKSQFSLKLSSVTAADTAVYYCPRGPTMIRGVIDSWGQGTLVTVSS VL: EIVLTQSPATLSLSPGERATLSCRASQSVRSYLAWYQQKPGQAPRLLIYDASNRATGIPARFSGSGSGTDFTLTISSLEPEDFAVYYCQQRSNWPPTFGQGTKVEIK |
| 31.4 nM | XENP35128 H1.50 L1 (antibody, V domains shown) VH: QLQVQESGPGLVKPSETLSLTCTVSGGSISNSYFSWGWIRQPPGKGLEWIGSFKYGEKTYYNPSLKSRATISIDTSKSQFSLKLSSVTAADTAVYYCPRGPTMIRGVIDSWGQGTLVTVSS VL: EIVLTQSPATLSLSPGERATLSCRASQSVRSYLAWYQQKPGQAPRLLIYDASNRATGIPARFSGSGSGTDFTLTISSLEPEDFAVYYCQQRSNWPPTFGQGTKVEIK |

Biological target: T1, human TGFßRII (antigen of the Octet …)
Assay: not given

| Binder | Kd |
| --- | --- |
| TBRII-A_H1.36_L1 (antibody, V domains shown) VH: QLQVQESGPGLVKPSETLSLTCTVSGGSISNSYFSWSWIRQPPGKGLEWIGSFYYGEKTYYNPSLKSRATISIDTSKSQFSLKLSSVTAADTAVYYCPRGPTMIRGVIDSWGQGTLVTVSS VL: EIVLTQSPATLSLSPGERATLSCRASQSVRSYLAWYQQKPGQAPRLLIYDASNRATGIPARFSGSGSGTDFTLTISSLEPEDFAVYYCQQRSNWPPTFGQGTKVEIK | 3.5 nM |
| TBRII-A_H1.30_L1 (antibody, V domains shown) VH: QLQVQESGPGLVKPSETLSLTCTVSGGSISNSYFYWGWIRQPPGKGLEWIGSFYYGEKTYYNPSLKSRATISIDTSKSQFSLKLSSVTAADTAVYYCPRGPTMIRGVIDSWGQGTLVTVSS VL: EIVLTQSPATLSLSPGERATLSCRASQSVRSYLAWYQQKPGQAPRLLIYDASNRATGIPARFSGSGSGTDFTLTISSLEPEDFAVYYCQQRSNWPPTFGQGTKVEIK | 14 nM |

Further lines, results first:

| Kd | Binder |
| --- | --- |
| 109 nM | XENP37818 TBRII-A_H1.190_L1.53 (antibody, V domains shown) VH: QLQVQESGPGLVKPSETLSLTCTVSGGSISSSYFSWGWIRQPPGKGLEWIGSFYYGGKTYYNPSLKSRATISIDTSKNQFSLKLSSVTAADTAVYYCARGPTTIRGVIDSWGQGTLVTVSS VL: EIVLTQSPATLSLSPGERATLSCRASQSVRSYLAWYQQKPGQAPRLLIYDASNRATGIPARFSGSGSGTDFTLTISSLEPEDFAVYYCQQRSNYPPTFGQGTKVEIK |
| 31.6 nM | XENP37813 TBRII-A_H1.270_L1 (antibody, V domains shown) VH: QLQVQESGPGLVKPSETLSLTCTVSGGSISSSYFSWGWIRQPPGKGLEWIGSFNYGGKTYYNPSLKSRATISIDTSKNQFSLKLSSVTAADTAVYYCARGPTLIRGVIDSWGQGTLVTVSS VL: EIVLTQSPATLSLSPGERATLSCRASQSVRSYLAWYQQKPGQAPRLLIYDASNRATGIPARFSGSGSGTDFTLTISSLEPEDFAVYYCQQRSNWPPTFGQGTKVEIK |
